Assays:
[1] = target: human Fc tagged human Lag3 extra cellular domain (human) (UniProt P18627); test: FACS, inhibition of biotinylated Lag3:Fc binding to MHC-II on A375 cells (competitor MHC-II); control at 10 µg/ml
[2] = target: cynomolgus LAG3 on cells (cynomolgus); test: flow cytometry on activated cynomolgus PBMC, 10 µg/ml; control (only 2nd Ab (hu): 7.62)

human Fc tagged human Lag3 extra cellular domain (human), sequence (P18627 29-450): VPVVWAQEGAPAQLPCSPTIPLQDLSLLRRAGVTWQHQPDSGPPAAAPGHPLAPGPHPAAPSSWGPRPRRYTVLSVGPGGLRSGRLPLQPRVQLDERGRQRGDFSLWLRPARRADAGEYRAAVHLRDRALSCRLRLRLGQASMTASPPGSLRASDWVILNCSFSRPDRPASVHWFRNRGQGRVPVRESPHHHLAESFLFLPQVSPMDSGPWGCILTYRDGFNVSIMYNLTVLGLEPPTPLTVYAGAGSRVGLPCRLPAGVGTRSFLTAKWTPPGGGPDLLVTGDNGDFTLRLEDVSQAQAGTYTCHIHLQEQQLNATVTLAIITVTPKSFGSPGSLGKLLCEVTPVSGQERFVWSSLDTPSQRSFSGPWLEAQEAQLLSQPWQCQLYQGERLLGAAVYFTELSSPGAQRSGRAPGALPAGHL

Row | Substance | % Inhibition [1] [%] | % positive cyno cells (PBLs) after CD3/CD28 activation [2] [%]
1 | human IgG1 isotype control (Sigma, cat.no. #I5154) (antibody) | -2.9 | 
2 | DP47 (human isotype) (antibody) |  | 9.19
